Numbered stars: 1 amine (or outer) side, 2 acyl side, 3 side chain; on linkers, the order of the positions; unused ones are H or OH. Bridge positions count the residues as written; N and C are the ends. Square brackets hold non-standard residues; d marks the D form. Ends that are not written are not given here. Bis(1,2,3triazol4ylCH2)ether = c1c(COCc2cn([*:2])nn2)nnn1[*:1]; Aha = [N-]=[N+]=NCC[C@H](N)C(=O)O
Assays:
[1] = molecular target: biotinylated MDM2 truncate (residues 10-118) (UniProt Q00987 10-118, biotin (NHS-PEG4-Biotin)); assay: BLI
Chain of biotinylated MDM2 truncate (residues 10-118) (Q00987 10-118): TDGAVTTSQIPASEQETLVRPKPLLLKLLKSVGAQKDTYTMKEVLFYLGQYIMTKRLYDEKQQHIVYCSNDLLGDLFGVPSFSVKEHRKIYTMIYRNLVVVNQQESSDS

[2] = molecular target: AlexaFluor647 tagged MDM2-GST (UniProt Q00987 1-491, AlexaFluor647 label); assay: flow cytometry on cells
Chain of AlexaFluor647 tagged MDM2-GST (Q00987 whole entry): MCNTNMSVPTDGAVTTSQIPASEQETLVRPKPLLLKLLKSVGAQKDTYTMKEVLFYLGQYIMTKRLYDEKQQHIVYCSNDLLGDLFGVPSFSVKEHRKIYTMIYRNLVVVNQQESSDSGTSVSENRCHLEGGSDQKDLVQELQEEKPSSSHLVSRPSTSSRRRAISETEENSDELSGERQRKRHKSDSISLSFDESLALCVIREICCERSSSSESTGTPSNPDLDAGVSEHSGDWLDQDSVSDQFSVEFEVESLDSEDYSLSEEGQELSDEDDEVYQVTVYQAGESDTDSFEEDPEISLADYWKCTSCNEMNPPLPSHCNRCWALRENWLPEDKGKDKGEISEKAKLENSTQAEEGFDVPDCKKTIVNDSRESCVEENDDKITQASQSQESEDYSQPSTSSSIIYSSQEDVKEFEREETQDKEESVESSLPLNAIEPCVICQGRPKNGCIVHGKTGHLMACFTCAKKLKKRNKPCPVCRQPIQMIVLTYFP

| Binder | Kd [1] [nM] | Kd [2] [nM] |
| --- | --- | --- |
| GGTF[Aha]GYWADL[Aha]AF-NH2 [SPD-M3-G1, synthetic, non-stabilized] | 21 | – |
| GGTF[Aha]GYWADL[Aha]AF-NH2 (triazole 5-12 via Bis(1,2,3triazol4ylCH2)ether) [SPD-M3-G1, synthetic, stabilized] | 5.1 | – |
| VLSF[Aha]DYWNLL[Aha]GS [SPD-M3-V1, displayed on the bacterial surface, non-stabilized] | – | 64 ± 33 |
| VLSF[Aha]DYWNLL[Aha]GS-NH2 [SPD-M3-V1, synthetic, non-stabilized] | 131 | – |
| VLSF[Aha]DYWNLL[Aha]GS-NH2 (triazole 5-12 via Bis(1,2,3triazol4ylCH2)ether) [SPD-M3-V1, synthetic, stabilized] | 14 | – |
| VLSF[Aha]DYWNLL[Aha]GS (triazole 5-12 via Bis(1,2,3triazol4ylCH2)ether) [SPD-M3-V1, displayed on the bacterial surface, stabilized] | – | 9.8 ± 3.4 |
